What all share (assay type): physicochemical
Series [1] is described as follows: Small-angle X-ray scattering (SAXS) of polypeptide in solution. The procedure:
The black circles represent experimental data and the red line represents X-ray scattering data of the most likely model obtained using DAMMIF.
As shown in FIG. 10 and FIG. 11, a form factor (P(q)) and an electron pair distance distribution function p(r) were obtained to investigate the shape and size of the polypeptide prepared in Example 2 (ODβ-S).
For the polypeptide prepared in Example 2 (ODβ-S), Rg,p(r) was calculated to be 11.01±0.078 Å and Dmax was calculated to be 34.0 Å.

Series [2] is described as follows: Diffusion-ordered spectroscopy (DOSY) in solution.
Series [3] in a line: Transmission electron microscopy (TEM) of negatively stained aggregate. An excerpt:
The insert is an enlarged image.

Non-standard residues stand in square brackets, D forms with d. No end group written: not given here. ebes = not defined here

Consider “Example 2: short polypeptide WKWEW-GSGS-(ebes)GS-εK- with oppositely directed WEWKW (SEQ ID NOS 9 and 10) (chain 1 WKWEWGSGS[ebes]GSK; numbers in words are those of the source; reading uncertain; also: K12 εK branch carrying oppositely directed WEWKW strand (chain 2), printed as WKWEW-GSGS-(ebes)GS-εK-)”, for which the aggregation state entry in series [1] was “exists as monomers rather than as aggregates”. This substance also yielded a Dmax in series [1] (from p(r)) of 34.0 Å. Further, the “Rg,p(r)” value in series [1] (from p(r) using GNOM) is recorded as 11.01±0.078 Å. In series [2], the “D (diffusion coefficient)” value is reported as 1.625×10^−10 m^2/s and the “hydrodynamic radius R(H)” value was found to be 12.27 Å.
For “Comparative Example 2: comparative naturally directed β-α-β polypeptide WKWEWYWKWEW-GSGS-A(EAAAK)2A-GS-... (SEQ ID NOS 13 and 3) (chain 1 WKWEWYWKWEWGSGSAEAAAKEAAAKAGSK; chain 2 WEWKWYWEWKW; also: chain 2 joined at Lys30 side chain (εK branch))”, the aggregate morphology entry in series [3] was “forms a heterogeneous structure and exists mainly as large-sized aggregates”.

The values above are taken from patent publication US9822149B2, “Polypeptide having multiple directionality and self-assembled nanostructure containing the same” (INDUSTRY-ACADEMIC COOPERATION FOUNDATION, YONSEI UNIVERSITY, priority 2014, dated 2017).
